# Reference: the RNAGym collection of RNA variant scans (doi:10.7554/elife.80360)
# B1: Hammerhead Ribozyme (parent)
# chain: ACCGGAUGUGCUUUCCGGUCUGAUGAGUCCGUGAGGACGAAACAG
# Variants of: B1
# Experiment: self-cleavage, relative activity (ratio to wild type); higher = more cleavage; co-transcriptional
row,Variant,self-cleavage
1,ACCGGAUGUGCUUUCCGGUGUGAUGAGUCCGUGUGGACGAAACAG [C20G A34U],0.383
2,ACCGGAUGUGUUUUCCGGUCUGACGAGUCCGUGAGGACGAAACAG [C11U U24C],1.08
3,AGCGGAUGUGCUUUCCGGUCUGCUGAGUCCGUGAGGACGAAACAG [C2G A23C],0.294
4,ACAGGAUGUGCUUUCCGGUCUGAUGAGUCCGUGAGGACGAAAAAG [C3A C43A],0.28
5,ACCAGAUGUGUUUUCCGGUCUGAUGAGUCCGUGAGGACGAAACAG [G4A C11U],0.389
6,AACGGAUGUGCUUUCCGGUCUGAUGGGUCCGUGAGGACGAAACAG [C2A A26G],0.293
7,ACCGGAUGUGCUUUCCGGUCUGCUGAGUCUGUGAGGACGAAACAG [A23C C30U],0.578
8,ACCGGAUGUGCUUACCGGUCUGAUGAGUCCGUGAGGACGAAUCAG [U14A A42U],0.272
9,ACCGGACGUGCUUUCCGGUAUGAUGAGUCCGUGAGGACGAAACAG [U7C C20A],0.5
10,ACCGGAUGUGCUUUCCGGUCUGAUCAGUCCGUGACGACGAAACAG [G25C G35C],0.355
11,ACCGGAUGUGCUUUCCGGUCUGAUGAGUCCGAGAGGACGAAACUG [U32A A44U],0.633
12,ACUGGAUGUCCUUUCCGGUCUGAUGAGUCCGUGAGGACGAAACAG [C3U G10C],1.05
13,ACGGGAUGUGCUUUCCAGUCUGAUGAGUCCGUGAGGACGAAACAG [C3G G17A],0.511
14,ACCGGAUGUGCUUUCCGGUCUGAUGAGUCCGUGAGGACGCAUCAG [A40C A42U],0.427
15,ACGGGAUGUGCUUUCCGCUCUGAUGAGUCCGUGAGGACGAAACAG [C3G G18C],0.335
16,ACCGGAUGUGCUUUCCGGUCUGAUGAGUCCGUGAGGACGAAUCAG [A42U],0.338
17,ACCGGAUUUGAUUUCCGGUCUGAUGAGUCCGUGAGGACGAAACAG [G8U C11A],1.11
18,ACCGGAUGUGCUUUCCGGUCUGUUGACUCCGUGAGGACGAAACAG [A23U G27C],0.308
19,ACCGGAUGUGCAUUCCGGUCUGAUGAGUCCGUGAUGACGAAACAG [U12A G35U],0.629

row,Variant,self-cleavage
1,ACCGGAUAUGCUUUCCGGACUGAUGAGUCCGUGAGGACGAAACAG [G8A U19A],0.402
2,ACCGGAUGUGCUUUCCGGUCUGAUGAGUUCGUGAGGACGAGACAG [C29U A41G],0.275
3,ACCGGAUGUGUUUUCCGCUCUGAUGAGUCCGUGAGGACGAAACAG [C11U G18C],0.319
4,CCCGGAUGUGCUUUCCGGUCUGAUGAGUCCGUGAGGAAGAAACAG [A1C C38A],0.408
5,ACCGGAUGUGCUUUCCGGUCUGAUGAGUCCGUGAGCACCAAACAG [G36C G39C],0.335
6,ACCGGAUGUGCUUUUCGGUUUGAUGAGUCCGUGAGGACGAAACAG [C15U C20U],0.627
7,ACCGGAUCUGCUUUCCGGUCUGAUGAGUCCGUGAGGACGCAACAG [G8C A40C],0.428
8,UCCGGAUGUGCUUUCCGGUCUGAUGAGUACGUGAGGACGAAACAG [A1U C29A],0.435
9,ACCGGAUGUGCUUUCCGGUCUGAUGAGUCCGUGAGGACGACACAG [A41C],0.376
10,ACCGGAUGUGCUUGCCGGUCGGAUGAGUCCGUGAGGACGAAACAG [U14G U21G],0.572
11,ACCGGAUGUGCUUUCCGGUCUGAUGAGUCCUUGAGGACGAAAGAG [G31U C43G],0.472
12,ACCGGAUGUGCUUUCCGGUCUGAUGAGUCCGUGUGUACGAAACAG [A34U G36U],0.565
13,ACCGGUUGUGCUUUCCGGUCUGAUGAGUCCGUGAGGACGGAACAG [A6U A40G],0.317
14,ACCGGAUGUGCUUUCCGGUUUGAUGAGUCCGUAAGGACGAAACAG [C20U G33A],0.867
15,ACCGGAUGUGCUUUCCUGUUUGAUGAGUCCGUGAGGACGAAACAG [G17U C20U],0.501
16,ACCGGAUGUGCUGUCCGGUCUGAUGAGUCCGUGAGGACGAAACAG [U13G],0.924
17,ACCGGAUGUGCUUUCCGGUCUGAUGAGUCCGUGAGGACCAAGCAG [G39C A42G],0.279
18,ACCGGAUGUGUUUUCAGGUCUGAUGAGUCCGUGAGGACGAAACAG [C11U C16A],0.886
19,ACCGGAUGUGCUUUCCGGUCUGAUGAGCCCGUCAGGACGAAACAG [U28C G33C],0.906

row,Variant,self-cleavage
1,ACCGGAUGUGCUUUCCAGUCUUAUGAGUCCGUGAGGACGAAACAG [G17A G22U],0.345
2,ACCGGAUAUGCUUUCCGGUCUGAUGAGUCUGUGAGGACGAAACAG [G8A C30U],0.826
3,ACCGGAUGUGCUUUCCGGACUGAUGAGUCCGUGAGGACGAAACUG [U19A A44U],0.262
4,UCCGGAUGUGCUUUCGGGUCUGAUGAGUCCGUGAGGACGAAACAG [A1U C16G],0.459
5,ACCGGAUGUGCUUUCCGGUCUGAUGAGUCCGUGAGGACGAUACAC [A41U G45C],0.392
6,ACCGGAUGGGCUUUCCGGUCUGAUGAGUCCGUGAGGACGAAACAC [U9G G45C],0.462
7,ACCGGAUGUGCUCUCCGGUCUGAUGAGUCCGUGAGGGCGAAACAG [U13C A37G],1.26
8,ACCGGAUGUGCUUUCCGGUCUAAUGAGUACGUGAGGACGAAACAG [G22A C29A],0.342
9,ACCGGAUGUGCUUUCCGGUCUGAUGAGCCCGUGAGGACCAAACAG [U28C G39C],0.371
10,ACCGGAUGUGCUUUCCGGUCUGAUGAGUCCGUGAGGACGAAUCCG [A42U A44C],0.96
11,ACCGGAUGUACGUUCCGGUCUGAUGAGUCCGUGAGGACGAAACAG [G10A U12G],1.51
12,ACCGGUUGUGCUUUCCGGUCUGAUGAGUCCGUGAGGACUAAACAG [A6U G39U],0.364
13,ACCGGAUUUGCGUUCCGGUCUGAUGAGUCCGUGAGGACGAAACAG [G8U U12G],0.993
14,ACCGGAUAAGCUUUCCGGUCUGAUGAGUCCGUGAGGACGAAACAG [G8A U9A],0.863
15,ACCGGAUGUUCUUUCCGGUCUGAUGAGUCAGUGAGGACGAAACAG [G10U C30A],0.844
16,ACCGGAUGUGCUUUUCGGUCUGAUGAGUCCGUGAGGACGGAACAG [C15U A40G],0.269
17,ACCGGAAGUGCUUUCCGGUCUGAUGAGUCCGUAAGGACGAAACAG [U7A G33A],1.45
18,ACCGGCUGUGCUUUCCCGUCUGAUGAGUCCGUGAGGACGAAACAG [A6C G17C],0.269
19,ACCGGAUGUGCUUUUCGGUCUGAUGAGUCCGCGAGGACGAAACAG [C15U U32C],0.93
